{"source": "paper PMC7427095", "about": "(2020)", "key": {"[1]": {"target": "HA4-AsLOV2 (SS58 insertion, V416L mutant) (Avena sativa)", "test": "BLI; Octet RED96e; 6x-histidine tagged OptoMB variant loaded on Ni-NTA sensors, YFP-SH2 in solution at several concentrations; Buffer A (Tris 50 mM pH 8.0, NaCl 150 mM); illumination: 450 nm light (blue LED panel above the plate, lid open); binding and unbinding curves fitted together to a mass-action model; single experiments"}, "[2]": {"target": "His6-HA4-AsLOV2 (SS58 insertion, C450V mutant) (Avena sativa)", "test": "BLI; Octet RED96e; 6x-histidine tagged OptoMB variant loaded on Ni-NTA sensors, YFP-SH2 in solution at several concentrations; Buffer A (Tris 50 mM pH 8.0, NaCl 150 mM); illumination: 450 nm light (blue LED panel above the plate, lid open); binding and unbinding curves fitted together to a mass-action model; single experiments"}, "[3]": {"target": "HA4-AsLOV2 (SS58 insertion, V416L mutant) (Avena sativa)", "test": "BLI; Octet RED96e; 6x-histidine tagged OptoMB variant loaded on Ni-NTA sensors, YFP-SH2 in solution at several concentrations; Buffer A (Tris 50 mM pH 8.0, NaCl 150 mM); illumination: ambient (ambient laboratory light and the instrument's internal light sufficed to trigger the lit conformation of the light-sensitive constructs); binding and unbinding curves fitted together to a mass-action model; single experiments"}, "[4]": {"target": "His6-HA4-AsLOV2 (SS58 insertion): αSH2-OptoMB (Avena sativa)", "test": "BLI; Octet RED96e; 6x-histidine tagged OptoMB variant loaded on Ni-NTA sensors, YFP-SH2 in solution at several concentrations; Buffer A (Tris 50 mM pH 8.0, NaCl 150 mM); illumination: ambient (ambient laboratory light and the instrument's internal light sufficed to trigger the lit conformation of the light-sensitive constructs); binding and unbinding curves fitted together to a mass-action model; single experiments"}, "[5]": {"target": "His6-HA4-AsLOV2 (SS58 insertion, C450V mutant) (Avena sativa)", "test": "BLI; Octet RED96e; 6x-histidine tagged OptoMB variant loaded on Ni-NTA sensors, YFP-SH2 in solution at several concentrations; Buffer A (Tris 50 mM pH 8.0, NaCl 150 mM); illumination: ambient (ambient laboratory light and the instrument's internal light sufficed to trigger the lit conformation of the light-sensitive constructs); binding and unbinding curves fitted together to a mass-action model; single experiments"}, "[6]": {"target": "His6-SUMO-HA4-AsLOV2 (SS58 insertion, V416I, G528A, N538E mutant) (Avena sativa)", "test": "BLI; Octet RED96e; 6x-histidine tagged OptoMB variant loaded on Ni-NTA sensors, YFP-SH2 in solution at several concentrations; Buffer A (Tris 50 mM pH 8.0, NaCl 150 mM); illumination: ambient (ambient laboratory light and the instrument's internal light sufficed to trigger the lit conformation of the light-sensitive constructs); binding and unbinding curves fitted together to a mass-action model; single experiments"}, "[7]": {"target": "T1, OptoMB_(C450V), His-tagged (Avena sativa, UniProt O49003 408-543, C450V)", "test": "BLI; dark"}, "[8]": {"target": "T1, OptoMB_(C450V), His-tagged", "test": "BLI; dark", "remark": "listed apart in the source"}, "[9]": {"target": "T2, OptoMB_(V416L), His-tagged (Avena sativa, UniProt O49003 408-543, V416L)", "test": "BLI; light"}, "[10]": {"target": "T2, OptoMB_(V416L), His-tagged", "test": "BLI; light", "remark": "listed apart in the source"}, "[11]": {"target": "Monobody HA4 (6x-histidine tagged)", "test": "BLI; Octet RED96e; His-tagged HA4 loaded on Ni-NTA sensors, YFP-SH2 in solution; Buffer A (Tris 50 mM pH 8.0, NaCl 150 mM); state of illumination not given ('–')"}, "[12]": {"target": "T1, OptoMB_(C450V), His-tagged", "test": "BLI; DARK conformation: Octet RED96e, no external light source; His-tagged OptoMB_(C450V) loaded on Ni-NTA sensors, YFP-SH2 in solution; Buffer A (Tris 50 mM pH 8.0, NaCl 150 mM)"}, "[13]": {"target": "T2, OptoMB_(V416L), His-tagged", "test": "BLI; LIGHT conformation: Octet RED96e with the lid open and a blue LED panel above the plate (for the V416I-G528A-N538E variant pre-illumination); His-tagged OptoMB variants loaded on Ni-NTA sensors, YFP-SH2 in solution; Buffer A (Tris 50 mM pH 8.0, NaCl 150 mM)"}, "[14]": {"target": "αSH2 OptoMonobody (OptoMB), His-tagged, wild-type AsLOV2 (Avena sativa) (UniProt O49003)", "test": "BLI; LIGHT conformation: Octet RED96e with the lid open and a blue LED panel above the plate (for the V416I-G528A-N538E variant pre-illumination); His-tagged OptoMB variants loaded on Ni-NTA sensors, YFP-SH2 in solution; Buffer A (Tris 50 mM pH 8.0, NaCl 150 mM)"}}, "note": "Values joined by “and” are separate entries in the source; they are usually repeats but may differ in a detail not shown here. Identical values can stand only once.", "data": [{"binder": "YFP-SH2 (fusion of yellow fluorescent protein and the SH2 domain of human Abl kinase), purified (domain or fragment) SLEKHSWYHGPVSRNAAEYLLSSGINGSFLVRESESSPGQRSISLRYEGRVYHYRINTASDGKLYVSSESRFNTLAELVHHHSTVADGLITTLHYPAPKRNKPTVYGVSPNY", "values": [{"measurement": "Kd", "setting": "[1]", "result": "60 µM and 42 µM"}, {"measurement": "koff", "setting": "[1]", "result": "0.2 s⁻¹ and 0.24 s⁻¹"}, {"measurement": "kon", "setting": "[1]", "result": "3300 M⁻¹ s⁻¹ and 5800 M⁻¹ s⁻¹"}, {"measurement": "Kd", "setting": "[2]", "result": 0.27, "unit": "µM"}, {"measurement": "koff", "setting": "[2]", "result": 0.013, "unit": "s⁻¹"}, {"measurement": "kon", "setting": "[2]", "result": 48000, "unit": "M⁻¹ s⁻¹"}, {"measurement": "Kd", "setting": "[3]", "result": 87, "unit": "µM"}, {"measurement": "koff", "setting": "[3]", "result": 0.25, "unit": "s⁻¹"}, {"measurement": "kon", "setting": "[3]", "result": 2900, "unit": "M⁻¹ s⁻¹"}, {"measurement": "Kd", "setting": "[4]", "result": "> 100", "unit": "µM"}, {"measurement": "kon", "setting": "[4]", "result": "< 1000", "unit": "M⁻¹ s⁻¹"}, {"measurement": "Kd", "setting": "[5]", "result": "0.06 µM and 0.23 µM"}, {"measurement": "koff", "setting": "[5]", "result": "0.006 s⁻¹ and 0.013 s⁻¹"}, {"measurement": "kon", "setting": "[5]", "result": "110000 M⁻¹ s⁻¹ and 56000 M⁻¹ s⁻¹"}, {"measurement": "Kd", "setting": "[6]", "result": "> 100", "unit": "µM"}, {"measurement": "kon", "setting": "[6]", "result": "< 1000", "unit": "M⁻¹ s⁻¹"}]}, {"binder": "YFP-SH2, purified (fusion of YFP and the SH2 domain of human Abl kinase) (domain or fragment) SLEKHSWYHGPVSRNAAEYLLSSGINGSFLVRESESSPGQRSISLRYEGRVYHYRINTASDGKLYVSSESRFNTLAELVHHHSTVADGLITTLHYPAPKRNKPTVYGVSPNY", "values": [{"measurement": "Kd", "setting": "[7]", "result": 0.0569, "unit": "µM"}, {"measurement": "koff", "setting": "[8]", "result": 0.00599, "unit": "s⁻¹"}, {"measurement": "Kd", "setting": "[9]", "result": 86.7, "unit": "µM"}, {"measurement": "koff", "setting": "[10]", "result": 0.254, "unit": "s⁻¹"}, {"measurement": "Kd", "setting": "[11]", "result": 0.23, "unit": "µM"}, {"measurement": "koff", "setting": "[11]", "result": 0.0145, "unit": "s⁻¹"}, {"measurement": "kon", "setting": "[11]", "result": 63100, "unit": "M⁻¹ s⁻¹"}, {"measurement": "Kd", "setting": "[12]", "result": 0.19, "unit": "µM"}, {"measurement": "koff", "setting": "[12]", "result": 0.01, "unit": "s⁻¹"}, {"measurement": "kon", "setting": "[12]", "result": 71000, "unit": "M⁻¹ s⁻¹"}, {"measurement": "Kd", "setting": "[13]", "result": 63, "unit": "µM"}, {"measurement": "koff", "setting": "[13]", "result": 0.23, "unit": "s⁻¹"}, {"measurement": "kon", "setting": "[13]", "result": 4000, "unit": "M⁻¹ s⁻¹"}, {"measurement": "Kd", "setting": "[14]", "result": "> 100", "unit": "µM"}, {"measurement": "kon", "setting": "[14]", "result": "< 1000", "unit": "M⁻¹ s⁻¹"}]}]}
